Laboratory results reported in patent US12514853B2, “Therapeutic dendrimer” (Starpharma Pty Ltd, priority 2018, dated 2026).
Values joined by “and” are separate entries in the source; they are usually repeats but may differ in a detail not shown here. Identical values can stand only once. Like-named read-outs stand apart in the source and are kept apart here.

Tests used:
[1] = system: HT-29 cells (human colon cancer cell line); assay: In-vitro anti-cancer drug screening, cell counting (SRB) assay; assay type: cell-based; conditions: concentration required to inhibit net cell growth by 50%
Experimental: A study was carried out to determine the ability of example dendrimers to inhibit growth of HT-29 cells (human colon cancer cell line) using a cell counting (SRB) assay.

[2] = SN-38 release from dendrimers in 9:1 PBS/DMA at 37° C. and pH 7.4; assay type: physicochemical; conditions: SN-38 released, pH 7.4, 1 mg/mL dendrimer
Experimental: A study was carried out to determine the rate of SN-38 release from certain dendrimeric compounds in 9:1 PBS (phosphate-buffered saline): DMA at 37° C. and pH 7.4.
The PBS release study was conducted by preparing 1 mg/mL solutions of dendrimer in 9:1 v/v (PBS/DMA) immediately prior to incubation at 37° C. Samples were analysed at 6 h and 18 h and other timepoints by HPLC, comparing the % peak area of SN-38 to the % peak area of dendrimer construct. HPLC (C8 Xbridge, 3×100 mm), gradient: 5% ACN/H2O (0-1 min), 5-80% ACN (1-7 min), 80% ACN (7-12 min), 80-5% ACN (12-13 min), 5% ACN (13-15 min), 243 nm, 10 mM ammonium formate buffer, 0.4 mL/min.

[3] = system: SW620 (human colon carcinoma cell line) xenograft; assay: Efficacy in SW620 xenograft model in mice; conditions: for effect on SW620 tumour growth / tolerability: irinotecan 90 mg/kg; for effect on SW620 tumour growth: 2f 15, 2i 15, 2h 25, 2a 25 mg/kg IV days 1, 8, 15, study to day 119; for tolerability: 2f 15, 2i 15, 2h 25, 2a 25 mg/kg IV once weekly for three weeks
[4] = for tolerability: 2f 15 mg/kg, 2i 15 mg/kg, 2h 25 mg/kg, 2a 30 mg/kg SN-38 equivalents, IV once weekly for three weeks
[5] = system: HT-29 (human colon carcinoma cell line) xenograft; assay: Efficacy in HT-29 xenograft model in mice; assay type: in vivo, Balb/c nude mice; conditions: for effect on HT-29 tumour growth: 2f 15, 2i 15, 2h 25 mg/kg SN-38 equivalents IV once weekly; for Tumour growth inhibited: day 36, vs vehicle, irinotecan 90 mg/kg, 2f 15, 2i 15, 2h 25 mg/kg IV
[6] = system: MDA-MB-231 (human breast carcinoma cell line) xenograft; assay: Efficacy in MDA-MB-231 xenograft model in mice; assay type: in vivo, Balb/c nude mice; conditions: irinotecan 90 mg/kg, 2f 15, 2h 25 mg/kg IV once weekly for three weeks
[7] = system: HT-29 (human colon carcinoma cell line) xenograft; assay: Efficacy alone or in combination with olaparib in HT-29 xenograft model in mice; assay type: in vivo, Balb/c nude mice; conditions: for Percent TGI: day 28; for effect on HT-29 tumour growth (in words): olaparib 50 mg/kg orally, irinotecan 80 mg/kg IV, their combination, 2f 5 and 8 mg/kg IV
Experimental: Olaparib solid powder obtained from MedChemExpress was solubilised in DMSO and an oral formulation was prepared at a final concentration of 5 mg/ml in 10% DMSO: 15% (2-Hydroxypropyl)-β-cyclodextrin in sterile water.
The endpoint for the analysis was a tumour volume of 1200 mm^3.
Statistical analysis of tumour growth was performed on day 28 when the first study animals reached endpoint criteria for tumour burden.

[8] = patients to which irinotecan is administered; cited from earlier work
[9] = plasma release study (SN-38 release in rat plasma); assay type: in vitro ADME; conditions: 37° C.
[10] = Single dose pharmacokinetic study in rats; conditions: rat, single slow bolus IV
[11] = system: CAPAN-1 (pancreatic cancer cell line) xenograft; assay: Efficacy in CAPAN-1 xenograft model in mice; assay type: in vivo
[12] = system: HT-29 (human colon carcinoma cell line) xenograft; assay: Efficacy alone or in combination with cetuximab in HT-29 xenograft model in mice
[13] = 15 mg/kg SN-38 equivalents IV once weekly for 3 weeks
[14] = 20 mg/kg SN-38 equivalents IV once weekly for 3 weeks
[15] = 30 mg/kg SN-38 equivalents IV once weekly for 3 weeks
[16] = olaparib 50 mg/kg orally 5 days on/2 days off for 3 weeks, irinotecan 80 mg/kg IV days 1, 8, 15
[17] = high dose 2f (approx. 16.5 mg/kg SN-38 equivalents)
[18] = low dose 2f (approx. 1.3 mg/kg SN-38 equivalents)
[19] = medium dose 2f (approx. 7.5 mg/kg SN-38 equiv)

## BHALys[Lys]32[α-DGA-C20-Irinotecan]32†[ε-PEG˜2300]32‡ [Dendrimer 2j]
[1]
  GI50: 12000 nM

## BHALys[Lys]32[α-THF-C20-SN-38]32†[ε-PEG˜2300]32‡ [Dendrimer 2i]
[2]
  % Release at 6 h in 9:1 PBS/DMA at 37° C.: 40%
  % Release at 18 h in 9:1 PBS/DMA at 37° C.: 60%
[3]
  effect on SW620 tumour growth: induce regression of SW620 tumours
  tolerability: well tolerated
[4]; [13]
  Max. body weight loss (%): 8%
[4]; [14]
  Max. body weight loss (%): 15%
[4]; [15]
  Max. body weight loss (%): 15%
[4]
  tolerability: well tolerated
[5]
  effect on HT-29 tumour growth: induce transient regression of HT-29 tumours
  Tumour growth inhibited: 103%

## CCc1c2c(nc3ccc(OC(=O)N4CCC(N5CCCCC5)CC4)cc13)-c1cc3c(c(=O)n1C2)COC(=O)[C@]3(O)CC [Irinotecan, reference compound]
[6]
  effect on MDA-MB-231 tumour growth: continued to grow during drug treatment
[7]; [16]
  Percent TGI: 33%
[7]
  effect on HT-29 tumour growth (in words): moderate effect on tumour growth
[3]
  effect on SW620 tumour growth: delay of tumour growth with the exception of one tumour, which completely regressed after day 25
[8]
  patients with early symptoms of gastrointestinal toxicity (diarrhea, emesis, diaphoresis, abdominal cramping): up to 80%
[4]; 100 mg/kg irinotecan
  signs of toxicity: pale extremities and lethargy
[5]
  Tumour growth inhibited: 23%
[1]; Homo sapiens
  GI50: 7000 nM

## BHALys[Lys]32[α-TDA-C20-SN-38]32†[ε-PEG˜2300]32‡ [Dendrimer 2d]
[2]
  % Release at 6 h in 9:1 PBS/DMA at 37° C.: 5%
  % Release at 18 h in 9:1 PBS/DMA at 37° C.: 13%
[1]
  GI50: 140 nM
[9]; 0.5 h
  % SN-38 released: 1.87%
[9]; 2 h
  % SN-38 released: 5.47%
[9]; 4 h
  % SN-38 released: 9.50%
[9]; 6 h
  % SN-38 released: 14.92%
[9]; 22 h
  % SN-38 released: 46.69%

## CCc1c2c(nc3ccc(O)cc13)-c1cc3c(c(=O)n1C2)COC(=O)[C@]3(O)CC [SN-38, reference compound]
[1]; Homo sapiens
  GI50: < 10 nM

## BHALys[Lys]32[α-DGA-C20-SN-38]32†[ε-PEG˜2100]32‡ [Dendrimer 2f]
[6]
  effect on MDA-MB-231 tumour growth: induce MDA-MB-231 tumour regression
[7]; 2f 5 and 8 mg/kg vs irinotecan 80 mg/kg, P <0.0001
  tumour growth and tumour regression versus irinotecan: significantly inhibited tumour growth and prolonged tumour regression versus irinotecan
[7]; 2f 5 and 8 mg/kg vs olaparib 50 mg/kg
  tumour regression versus olaparib: prolonged tumour regression versus olaparib
[7]; 5 mg/kg 2f IV days 1, 8, 15, alone or with olaparib 50 mg/kg orally
  Percent TGI: 62%
[7]; 8 mg/kg 2f IV days 1, 8, 16, alone or with olaparib 50 mg/kg orally
  Percent TGI: 94% and 97%
[7]
  effect on HT-29 tumour growth (in words): clear dose dependent repose with statistically significant inhibition of tumour growth
[2]
  % Release at 6 h in 9:1 PBS/DMA at 37° C.: 24%
  % Release at 18 h in 9:1 PBS/DMA at 37° C.: 55%
[10]; [17]
  AUC0-∞, free SN-38: 6,677 ng · hr/mL
  Cmax, free SN-38: 289 ng/mL
  Cmax, total SN-38: 306,500 ng/mL
  Free SN-38 at 120 hours: 10.8 ng/mL
  Total SN-38 at 120 hours: 792.5 ng/mL
[10]; [18]
  AUC0-∞, free SN-38: 1,196 ng · hr/mL
  Cmax, free SN-38: 93 ng/mL
  Cmax, total SN-38: 32,767 ng/mL
  Free SN-38 at 120 hours: 0.8 ng/mL
  Total SN-38 at 120 hours: 111.5 ng/mL
[10]; [19]
  AUC0-∞, free SN-38: 3,179 ng · hr/mL
  Cmax, free SN-38: 164 ng/mL
  Cmax, total SN-38: 150,334 ng/mL
  Free SN-38 at 120 hours: 3.7 ng/mL
  Total SN-38 at 120 hours: 498 ng/mL
[3]
  effect on SW620 tumour growth: induce regression of SW620 tumours
  tolerability: well tolerated
[11]; administered intraperitoneally once weekly for three weeks
  effect on CAPAN-1 tumour growth: induces CAPAN-1 tumour regression
[11]; administered intravenously once weekly for three weeks
  effect on CAPAN-1 tumour growth: induces CAPAN-1 tumour regression
[4]; [13]
  Max. body weight loss (%): 4%
[4]; [14]
  Max. body weight loss (%): 10%
[4]; [15]
  Max. body weight loss (%): 22%
[4]
  tolerability: well tolerated
[12]; 2f 10 and 5 mg/kg vs cetuximab 25 mg/kg
  survival versus cetuximab: prolonged survival versus cetuximab
[12]; 2f 10 and 5 mg/kg vs irinotecan 35 mg/kg, P<0.0001
  survival versus irinotecan: significantly prolonged survival versus irinotecan
[5]
  effect on HT-29 tumour growth: induce transient regression of HT-29 tumours
  Tumour growth inhibited: 108%
[1]
  GI50: 50 nM and 40 nM
[9]; 0.5 h
  % SN-38 released: 5.06%
[9]; 2 h
  % SN-38 released: 24.56%
[9]; 4 h
  % SN-38 released: 45.36%
[9]; 6 h
  % SN-38 released: 61.81%
[9]; 22 h
  % SN-38 released: 95.61%

## BHALys[Lys]32[α-TDA-C20-Irinotecan]32†[ε-PEG˜2100]32‡ [Dendrimer 2k]
[1]
  GI50: 46000 nM

## O=C(c1cc(Cc2n[nH]c(=O)c3ccccc23)ccc1F)N1CCN(C(=O)C2CC2)CC1 [Olaparib, reference compound]
[7]; [16]
  Percent TGI: 0%
[7]
  effect on HT-29 tumour growth (in words): no effect on tumour growth

## BHALys[Lys]32[α-TDA-C10-SN-38]32†[ε-PEG˜2100]32‡ [Dendrimer 2c]
[2]
  % Release at 6 h in 9:1 PBS/DMA at 37° C.: 54%
  % Release at 18 h in 9:1 PBS/DMA at 37° C.: 55%
[1]
  GI50: 30 nM
[9]; 0.5 h
  % SN-38 released: 20.52%
[9]; 2 h
  % SN-38 released: 38.32%
[9]; 4 h
  % SN-38 released: 48.79%
[9]; 6 h
  % SN-38 released: 53.42%
[9]; 22 h
  % SN-38 released: 69.8%

## BHALys[Lys]32[α-Glu-C20-SN-38]32†[ε-PEG˜2300]32‡ [Dendrimer 2b]
[2]
  % Release at 6 h in 9:1 PBS/DMA at 37° C.: 0%
  % Release at 18 h in 9:1 PBS/DMA at 37° C.: 3%
[9]; 0.5 h
  % SN-38 released: 0.93%
[9]; 2 h
  % SN-38 released: 1.27%
[9]; 4 h
  % SN-38 released: 1.94%
[9]; 6 h
  % SN-38 released: 2.73%
[9]; 22 h
  % SN-38 released: 12.17%

## BHALys[Lys]32[α-DGA-C10-SN-38]32†[ε-PEG˜2300]32‡ [Dendrimer 2e]
[2]
  % Release at 6 h in 9:1 PBS/DMA at 37° C.: 64%
  % Release at 18 h in 9:1 PBS/DMA at 37° C.: 71%
[1]
  GI50: < 10 nM
[9]; 0.5 h
  % SN-38 released: 30.58%
[9]; 2 h
  % SN-38 released: 57.54%
[9]; 4 h
  % SN-38 released: 67.96%
[9]; 6 h
  % SN-38 released: 75.16%
[9]; 22 h
  % SN-38 released: 95.38%

## BHALys[Lys]32[α-Glu-C10-SN-38]32†[ε-PEG˜2300]32‡ [Dendrimer 2a]
[2]
  % Release at 6 h in 9:1 PBS/DMA at 37° C.: 9%
  % Release at 18 h in 9:1 PBS/DMA at 37° C.: 38%
[3]; 2a 25 mg/kg IV days 1, 8, 15, group of 6
  animals euthanized due to weight loss: One animal from the 2a group was euthanized during the study due to weight loss on Day 99
[3]
  effect on SW620 tumour growth: induce regression of SW620 tumours
  tolerability: well tolerated
[4]; 10 mg/kg SN-38 equivalents IV once weekly for 3 weeks
  Max. body weight loss (%): 0%
[4]; [15]
  Max. body weight loss (%): 10%
[4]
  tolerability: well tolerated
[1]
  GI50: 130 nM
[9]; 0.5 h
  % SN-38 released: 1.59%
[9]; 2 h
  % SN-38 released: 4.47%
[9]; 4 h
  % SN-38 released: 7.57%
[9]; 6 h
  % SN-38 released: 11.28%
[9]; 22 h
  % SN-38 released: 42.46%
